PMC3711072, “The Activity of CCL18 is Principally Mediated through Interaction with Glycosaminoglycans” (Frontiers in Immunology, 2013)
Values joined by “and” are separate entries in the source; they are usually repeats but may differ in a detail not shown here. Equal values may be shown once.

B4: CC chemokine ligand 18 (CCL18) (ligand, human, UniProt P55774 21-89, looked up)
chain: AQVGTNKELCCLVYTSWQIPQKFIVDYSETSPQCPKPGVILLTKRGRQICADPNKKWVQKYISDLKLNA

How the values were obtained:
[1] = target: B4; assay: SEC; 500 ug CCL18 and an equimolar amount of Evasin incubated 45 min at RT in PBS, Superdex 75 in PBS, 1.5 ml/min, calibrated column; fractions on silver stained SDS-PAGE; CCL18 and Evasins also run alone; details: both partners purified
[2] = target: T1, Radiolabeled CCL18 (125I-CCL18) (human, UniProt P55774 21-89, 125I label (radiolabeled; residue not stated)); assay: radioligand binding; equilibrium competition: increasing concentration of Evasin against 125I-CCL18 binding to L1.2/CCR3 transfectants; Evasin binds the tracer; details: both partners purified
T1 construct: CCL18, radioiodinated; also called tracer; source: bought: Anawa
T1 sequence (looked up): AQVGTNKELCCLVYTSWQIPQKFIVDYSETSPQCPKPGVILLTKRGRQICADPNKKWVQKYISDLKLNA

CCR3 [3] = target: T2, CCR3 (UniProt P51677 1-355); assay: radioligand binding; equilibrium competition binding of 125I-CCL18 on L1.2/CCR3 transfectants, increasing concentration of unlabelled competitor; details: one partner purified
T2 construct: CC chemokine receptor CCR3 expressed on L1.2 transfectants; In the functional rows on internalisation the CCR3 is the endogenous receptor of human eosinophils; also called CCR3 on L1.2/CCR3 transfectants; source: L1.2/CCR3 transfectants, on cells
T2 sequence (looked up): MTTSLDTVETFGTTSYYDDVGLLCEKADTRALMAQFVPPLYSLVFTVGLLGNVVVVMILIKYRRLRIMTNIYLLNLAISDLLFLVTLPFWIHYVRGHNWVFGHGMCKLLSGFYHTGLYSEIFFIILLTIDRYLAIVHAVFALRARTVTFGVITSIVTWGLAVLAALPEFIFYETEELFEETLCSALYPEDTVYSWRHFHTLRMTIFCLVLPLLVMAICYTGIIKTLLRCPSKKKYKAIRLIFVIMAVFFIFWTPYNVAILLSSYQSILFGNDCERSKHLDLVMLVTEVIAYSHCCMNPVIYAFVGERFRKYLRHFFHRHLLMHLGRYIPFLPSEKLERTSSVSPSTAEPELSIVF

CCR3 [4] = target: T2, CCR3; assay: cell-based or functional assay

B1: Evasin-1 (natural protein)
chain: EDDEDYGDLGGCPFLVAENKTGYPTIVACKQDCNGTTETAPNGTRCFSIGDEGLRRMTANLPYDCPLGQCSNGDCIPKETYEVCYRRNWRDKKN
modifications: glycosylated (sites not given)
notes: source: produced as previously described (18, 19)
stoichiometry N [1]: 1 | IC50 [2]: 9.92 nM and 7.94 nM

B2: CCL11 (ligand)
chain: not shown
notes: chemokine CCL11; source: obtained from PeptroTech or produced as previously described (17)
IC50 (CCR3 [3]): 4.99 nM

B3: Evasin-4 (natural protein)
chain: EVPQMTSSSAPDLEEEDDYTAYAPLTCYFTNSTLGLLAPPNCSVLCNSTTTWFNETSPNNASCLLTVDFLTQDAILQENQPYNCSVGHCDNGTCAGPPRHAQCW
modifications: glycosylated (sites not given)
notes: as for B1
stoichiometry N [1]: 1 | IC50 [2]: 0.015 nM and 0.03 nM

B4
inhibition of CCL11-induced chemotaxis of L1.2/CCR3 transfectants by CCL18 previously incubated with a twofold molar excess of Evasin-3 (no effect of Evasin-3), IC50, n = 3 (CCR3 [4]): 446 nM | inhibition of CCL11-induced chemotaxis of L1.2/CCR3 transfectants by CCL18 with Evasin-3 as a control, IC50 of the experiment shown (CCR3 [4]): 421 nM | inhibition of migration of L1.2/CCR3 transfectants to 1 nM CCL11 (blocks CCL11-CCR3), IC50 of the experiment shown (CCR3 [4]): 557 nM | inhibition of the chemotactic response of L1.2/CCR3 transfectants induced by 1 nM CCL11 (blocks CCL11-CCR3), IC50, mean of n = 7 (CCR3 [4]): 318 nM
